Target: PcrV as expressed by live P. aeruginosa (strains 6077 and 6206) in the cytotoxicity and RBC lysis assays (Pseudomonas aeruginosa)
Assay: cell-based or functional assay

B1: anti-PcrV monoclonal antibody V2L2 (antibody, V domains shown)
VH: EMQLLESGGGLVQPGGSLRLSCAASGFTFSSYAMNWVRQAPGEGLEWVSAITISGITAYYTDSVKGRFTISRDNSKNTLYLQMNSLRAGDTAVYYCAKEEFLPGTHYYYGMDVWGQGTTVTVSS
VL: AIQMTQSPSSLSASVGDRVTITCRASQGIRNDLGWYQQKPGKAPKLVIYSASTLQSGVPSRFSGSGSGTDFTLSISSLQPDDFATYYCLQDYNYPWTFGQGTKVEIK
inhibition of cytotoxicity (A549 lysis by P. aeruginosa 6077, LDH release), IC50: 0.1 µg/mL | inhibition of cytotoxicity, IC50 relative to mAb166: 28 fold lower | prevention of RBC lysis (rabbit RBCs, P. aeruginosa 6077), IC50: 0.37 µg/mL | prevention of RBC lysis, IC50 relative to mAb166: 10 fold lower
